Reference: the supplement of paper PMC10567573
± gives the standard deviation.

Experiment: protein stability index of a GFP-peptide fusion (GPS, HEK-293T) (PSI 1-6); higher = more stable
[1] = treatment: DMSO, c terminus: a fixed tail appended
[2] = treatment: MLN4924 1 uM, 8 h, c terminus: a fixed tail appended
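Further: 24-mer peptide tiles fused after GFP, lentivirally expressed, FACS-sorted into six equal bins by GFP/DsRed ratio, decoded by Illumina sequencing, PSI is the read-weighted mean bin number.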

Sequence	protein stability index [1]	protein stability index [2]	protein stability index (treatment: DMSO, c terminus: native)	protein stability index (treatment: MLN4924 1 uM, 8 h, c terminus: native)
FLRGPSGPRFGPRNDKIKHVQNQV [VAMP4]	2.93 ± 0.27	3.39 ± 0.31	–	–
FLRQLRASHLGNELEGTEELCCVA [C2CD2L]	2.98 ± 0.1	3.19 ± 0.3	–	–
FLSDVTAAVKENQMTPTNLAVCLA [DLC1]	2.72 ± 0.23	2.92 ± 0.29	–	–
FLWGPRALIETSYVKVLHHMVKIS [MAGEA6]	2.14 ± 0.89	2.59 ± 0.65	–	–
FMYNLVQFLGFSWIFVNLTVRFCI [HACD3]	3.58 ± 1.3	2.82 ± 0.15	–	–
FPFSLLGLLALAIGLWGLAVKGSL [TSPAN10]	3.33 ± 0.37	3.14 ± 0.27	–	–
FRVLCTAPAKYTVFDAEGYVKPQS [MOSPD3]	2.02 ± 0.35	2.19 ± 0.53	–	–
FSVVRRCMKIPTGQEYAAKIINTK [CAMK2D]	2.3 ± 0.1	2.31 ± 0.36	–	–
FTAKHANKVKVLDAPVPDCLGVHC [FSD1]	2.75 ± 0.26	3.04 ± 0.31	–	–
FTGELAESRQTEVVIRDIDERAME [KLHL20]	4.69 ± 0.21	4.89 ± 0.33	–	–
FTQNQIEVLENVFRVNCYPGIDIR [HESX1]	2.42 ± 0.4	2.14 ± 0.68	–	–
FYLPSSPNLSLASEDEEEYESGYA [SMG5]	4.55 ± 0.067	4.59 ± 0.21	–	–
FYSAEIICAIEYLHSKEIVYRDLK [PRKX]	2.96 ± 0.76	2.51 ± 0.45	–	–
GAAESPYGHPAGIDYKTTTILLDG [RAB40B]	4 ± 0.067	3.96 ± 0.25	–	–
GAERKAALCELLEKETQIIASIGR [IQUB]	3.21 ± 0.61	3.2 ± 0.2	–	–
GANINAFDKKDRRALHWAAYMGHL [ANKRD44]	2.3 ± 0.21	2.36 ± 0.31	–	–
GCILQWKKIYCRICMAQIAYSGNT [ZBED1]	2.23 ± 0.81	2.28 ± 0.76	–	–
GEAGWGAGEGRLGHKRKQPLPKRV [FOXJ1]	4.5 ± 0.16	4.59 ± 0.26	–	–
GEEEAESSISSTSNEQLKVTQEPR [ZMYND11]	5.59 ± 0.11	5.46 ± 0.28	–	–
GEGRKSRKFSRLSCLRRRRHPPKV [SMG5]	3.69 ± 0.37	3.82 ± 0.28	–	–
GFFDFETFDVDEYEHYERVENGDF [CDC14A]	4.14 ± 0.51	4.49 ± 0.52	–	–
GFTKEQQRLGIPKDPRQWTETHVR [ETS1]	3.25 ± 0.58	3.27 ± 0.25	–	–
GFTTATEFHQRRSEIIQITTGSKE [RAD51]	4.22 ± 0.44	4.35 ± 0.47	–	–

Sequence	protein stability index [1]	protein stability index [2]	protein stability index (treatment: DMSO, c terminus: native)	protein stability index (treatment: MLN4924 1 uM, 8 h, c terminus: native)
GGAEMRTQHWPIRLDGQQEPQPFV [MYORG]	3.86 ± 0.27	3.85 ± 0.13	–	–
GGDAGHAPFPPPPAADGARAPRSP [C6orf223]	5.39 ± 0.28	5.5 ± 0.27	–	–
GGEEEDEDENIEVVYSKAASVPKV [EIF5]	5.18 ± 0.14	4.93 ± 0.47	–	–
GGGEGHQPAGNRRGQARRLAPNFR [BEX3]	4.93 ± 0.17	4.92 ± 0.26	–	–
GGGNARATGMFLQYTVPGTEGVTQ [ZFYVE21]	3.51 ± 0.35	3.57 ± 0.18	–	–
GGMALGVAGLAGLIGLAVSKSKS [FIS1]	–	–	2.35 ± 0.34	1.78 ± 0.27
GGYGSSFGGVDGLLAGGEKATMQN [KRT17]	4.06 ± 0.12	4.395 ± 0.027	–	–
GHHQGMPGYLPGAMPPYGQGPPMV [ZNF207]	2.86 ± 0.43	2.84 ± 0.2	–	–
GHLSKDVDENDSHEGEDQFLSLEA [DLC1]	5.63 ± 0.17	5.54 ± 0.077	–	–
GHRSIYLALKLPDGSYALNGEYTL [ADAMTS4]	2.96 ± 0.94	2.63 ± 0.67	–	–
GKAATMEIPIHGNGEARQLPEDDG [ARFIP2]	5.58 ± 0.15	5.34 ± 0.21	–	–
GKDSRWLPSLVLARLVFVPLLLLC [SLC29A1]	2.68 ± 0.78	2.48 ± 0.45	–	–
GKEFGYFPRDAVQIEEVFISEEIQ [MIA2]	3.88 ± 0.42	3.77 ± 0.45	–	–
GKRYCRGKVLGKGGFAKCYEMTDL [PLK2]	2.79 ± 0.35	2.92 ± 0.27	–	–
GLGELGAALLQLVRRLQALRLERE [ESRRA]	2.66 ± 0.21	2.54 ± 0.14	–	–
GLKLIQIQDNGTGIRKEDLDIVCE [MLH1]	3.56 ± 0.37	3.87 ± 0.75	–	–
GLLSLLLPETLNSPLLETFSDLQV [SLC22A15]	2.47 ± 0.67	2.68 ± 0.68	–	–
GLQSYQQALLRISLDKVQRSLGPR [SERTAD3]	2.43 ± 0.27	2.26 ± 0.36	–	–
GLSLCQFQNFSLHDPLYGKLFSTY [LPCAT4]	1.81 ± 0.56	2.06 ± 0.21	–	–
GLSQVLLRGGGQVLLGWTLHYFPF [POMT2]	2.95 ± 0.26	2.97 ± 0.64	–	–
GMEGLLGTLVQLLGSDDINVVTCA [CTNNB1]	2.34 ± 0.55	2.46 ± 0.15	–	–
GMSYLYASWMYQLQHGDQLSICFT [TEX19]	3 ± 0.39	2.92 ± 0.42	–	–
GNDSFQLQVTEDVNSSIKTFFCPN [CLCN6]	3.54 ± 0.31	3.6 ± 0.26	–	–

Sequence	protein stability index [1]	protein stability index [2]	protein stability index (treatment: DMSO, c terminus: native)	protein stability index (treatment: MLN4924 1 uM, 8 h, c terminus: native)
GNPDPEITWFKDFLPVDTSNNNGR [PTPRD]	4.27 ± 0.31	4.76 ± 0.26	–	–
GNPEPVSYYIIQHKPKNSEELYKE [PTPRD]	3.77 ± 0.34	3.47 ± 0.54	–	–
GNTVPAVEPGTPPLDILAQPLEAS [DNAAF3]	5.19 ± 0.18	5.03 ± 0.29	–	–
GPADCSPPHPAPAPQHPAASALRT [DYRK1B]	4.81 ± 0.24	4.92 ± 0.15	–	–
GPDGQEMDPPNPEEVKTPEEEMRS [GAGE1]	5.7 ± 0.3	5.38 ± 0.42	–	–
GPRPVQSVVPEMEESGAQLLLEML [CDK4]	3.91 ± 0.66	3.71 ± 0.15	–	–
GPTGVTMTSNPITWGQIKKTTQEA [CDK11A]	4.55 ± 0.21	4.51 ± 0.4	–	–
GRGLLRWDSFSAWLHCVCVVGFDL [DENND6A]	2.77 ± 0.58	2.83 ± 0.69	–	–
GRLGKQCRERWHNHLNPEVKKSCW [MYBL2]	2.42 ± 0.17	2.99 ± 0.41	–	–
GRSGPGCAVLDDSIYLVGGYSWSM [KLHL14]	2.7 ± 0.39	2.38 ± 0.63	–	–
GSARSHASSRASENQSPSSSNYFS [ZBTB22]	4.28 ± 0.22	4.74 ± 0.2	–	–
GSEVVPVISPMYQLHKPLAEGTPR [IKZF1]	3.56 ± 0.16	4.21 ± 0.49	–	–
GSIPEFFHIMKRKFTNKEWETIRS [AASDHPPT]	2.73 ± 0.27	2.46 ± 0.3	–	–
GSLSLSFEREPSTSDLGTTDVQKK [RIPK4]	5.26 ± 0.45	5.31 ± 0.064	–	–
GSSDSEEERATRLAELQEQLKAVH [BRD3]	5.13 ± 0.23	5.15 ± 0.27	–	–
GTKLIFRRRPRQKEAGLSQSHDDL [C2CD2L]	4.03 ± 0.46	4.04 ± 0.3	–	–
GTSDYDDVLSCEYYSPILDQWTPI [KLHL13]	2.41 ± 0.33	2.34 ± 0.19	–	–
GVDHTKMSLHGASGGHERSRDRRR [BTBD10]	5.26 ± 0.27	5.3 ± 0.24	–	–
GWCIFVYNLSPEADESVLWQLFGP [ELAVL3]	2.8 ± 1.4	3.7 ± 1.2	–	–
GWYRPPFSRVVHLYRNGKDQDGDQ [MOG]	3.67 ± 0.34	3.73 ± 0.26	–	–
GYCSNQLAAKALLDQKKQDPRVQD [NET1]	4.89 ± 0.23	4.9 ± 0.21	–	–
GYLVTKVVAVDRDSGQNAWLSYRL [PCDHGA10]	2.6 ± 0.56	2.58 ± 0.69	–	–
HATALVEAFRLKQQLHARYVLNLL [PPEF2]	2.43 ± 0.38	2.6 ± 0.51	–	–

Sequence	protein stability index [1]	protein stability index [2]	protein stability index (treatment: DMSO, c terminus: native)	protein stability index (treatment: MLN4924 1 uM, 8 h, c terminus: native)
HAVVGVATALAPLQTDHYAALLGS [SPSB2]	2.37 ± 0.18	2.29 ± 0.39	–	–
HAYIHSVQFSHHVFLNLHTLKFYC [USP39]	3.33 ± 0.42	3.04 ± 0.56	–	–
HECKLTQEILELIDREVDLMMRGV [IQUB]	2.88 ± 0.2	3.17 ± 0.67	–	–
HELVWAKMKGFGFWPAKVMQKEDN [ZMYND11]	3.06 ± 0.37	3.09 ± 0.47	–	–
HGDDLKNTKNEISELTRLIQRIRS [KRT71]	2.77 ± 0.18	3.11 ± 0.3	–	–
HGEELRVSARSREGRGGRPGSTRP [HAGHL]	4.92 ± 0.2	4.93 ± 0.16	–	–
HGNEVLGRELLLLLVQFVCQEYLA [CPXM2]	3.11 ± 1.1	2.98 ± 1.2	–	–
HGRIPDPDDFVPPVPPPSYFATFY [FAM189A2]	2.24 ± 0.25	2.23 ± 0.34	–	–
HIKFPIDYPYSPPTFRFLTKMWHP [UBE2R2]	2.3 ± 0.32	2.24 ± 0.39	–	–
HKLVSASTDNIVSQWDVLSGDCDQ [RBBP5]	4.73 ± 0.18	4.68 ± 0.11	–	–
HQDLKYISPETMVALLTGKFSNIV [CDC25B]	2.23 ± 0.41	2.55 ± 0.54	–	–
HQSLSLASSPKGTIENILDNDPRD [CDC25A]	5.3 ± 0.2	5.22 ± 0.18	–	–
HRFVEKPQVFVSNKINAGMYILSP [GMPPB]	2.25 ± 0.21	2.29 ± 0.13	–	–
HSQFIGYPITLYLEKEREKEISDD [HSP90AB1]	3.82 ± 0.082	3.9 ± 0.26	–	–
HTEERPYECNHCGKGFRHSSSLAQ [ZNF8]	3.58 ± 0.3	3.79 ± 0.27	–	–
HVAVEHQLPPASRCVLVFEQVRFL [SOAT2]	2.66 ± 0.86	2.36 ± 0.61	–	–
HVFIGDHSGQVTILKLEQENCTLV [WDFY2]	2.09 ± 0.39	2.19 ± 0.19	–	–
HVKETQPPETVQNWIELLSGETWN [GOLPH3]	3.67 ± 0.36	3.86 ± 0.41	–	–
HVSYRELGACVRTAVAQGGWRSLW [SLC25A39]	2.01 ± 0.19	2.13 ± 0.2	–	–
IADYLLLPLAEREHVSRALCIHTG [TRIB1]	2.23 ± 0.47	2.02 ± 0.33	–	–
